Publication PMC9670587

Key:
FcγRIIA = FcγRIIA (UniProt P12318)
FcγRIIIA = FcγRIIIA (UniProt P08637)
Sequence of UniProt P08637 (P08637 17-254): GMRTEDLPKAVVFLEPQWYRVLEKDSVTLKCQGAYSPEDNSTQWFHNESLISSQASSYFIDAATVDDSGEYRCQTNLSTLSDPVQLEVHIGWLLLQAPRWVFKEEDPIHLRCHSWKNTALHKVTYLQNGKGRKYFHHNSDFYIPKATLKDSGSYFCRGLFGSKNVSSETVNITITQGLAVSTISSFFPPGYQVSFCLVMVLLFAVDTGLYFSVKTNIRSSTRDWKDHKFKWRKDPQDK

Sequence of UniProt P12318 (P12318 34-317): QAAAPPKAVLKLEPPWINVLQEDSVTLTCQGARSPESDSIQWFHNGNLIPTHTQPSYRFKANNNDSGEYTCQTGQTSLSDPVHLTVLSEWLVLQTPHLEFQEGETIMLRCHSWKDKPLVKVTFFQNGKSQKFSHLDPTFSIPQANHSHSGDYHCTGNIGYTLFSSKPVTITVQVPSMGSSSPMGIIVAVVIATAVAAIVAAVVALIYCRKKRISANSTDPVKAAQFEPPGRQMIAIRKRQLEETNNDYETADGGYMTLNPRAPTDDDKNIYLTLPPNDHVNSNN

antibody-dependent cellular phagocytosis (ADCP), EC50 (FcγRIIA): 0.139 nM | antibody-dependent cellular phagocytosis (ADCP), EC50 (FcγRIIIA): 0.139 nM
Substance: IMM01, recombinant SIRPα-Fc fusion protein
